From US20240270874A1 (JIANGSU HENGRUI PHARMACEUTICALS, published 2024)

Molecular target: T1, human KLB on CHOK1-hKLB cells (human, UniProt Q86Z14 1-1044)
T1 construct: whole, on cells; also called human KLB antigen; β-Klotho
T1 sequence (looked up): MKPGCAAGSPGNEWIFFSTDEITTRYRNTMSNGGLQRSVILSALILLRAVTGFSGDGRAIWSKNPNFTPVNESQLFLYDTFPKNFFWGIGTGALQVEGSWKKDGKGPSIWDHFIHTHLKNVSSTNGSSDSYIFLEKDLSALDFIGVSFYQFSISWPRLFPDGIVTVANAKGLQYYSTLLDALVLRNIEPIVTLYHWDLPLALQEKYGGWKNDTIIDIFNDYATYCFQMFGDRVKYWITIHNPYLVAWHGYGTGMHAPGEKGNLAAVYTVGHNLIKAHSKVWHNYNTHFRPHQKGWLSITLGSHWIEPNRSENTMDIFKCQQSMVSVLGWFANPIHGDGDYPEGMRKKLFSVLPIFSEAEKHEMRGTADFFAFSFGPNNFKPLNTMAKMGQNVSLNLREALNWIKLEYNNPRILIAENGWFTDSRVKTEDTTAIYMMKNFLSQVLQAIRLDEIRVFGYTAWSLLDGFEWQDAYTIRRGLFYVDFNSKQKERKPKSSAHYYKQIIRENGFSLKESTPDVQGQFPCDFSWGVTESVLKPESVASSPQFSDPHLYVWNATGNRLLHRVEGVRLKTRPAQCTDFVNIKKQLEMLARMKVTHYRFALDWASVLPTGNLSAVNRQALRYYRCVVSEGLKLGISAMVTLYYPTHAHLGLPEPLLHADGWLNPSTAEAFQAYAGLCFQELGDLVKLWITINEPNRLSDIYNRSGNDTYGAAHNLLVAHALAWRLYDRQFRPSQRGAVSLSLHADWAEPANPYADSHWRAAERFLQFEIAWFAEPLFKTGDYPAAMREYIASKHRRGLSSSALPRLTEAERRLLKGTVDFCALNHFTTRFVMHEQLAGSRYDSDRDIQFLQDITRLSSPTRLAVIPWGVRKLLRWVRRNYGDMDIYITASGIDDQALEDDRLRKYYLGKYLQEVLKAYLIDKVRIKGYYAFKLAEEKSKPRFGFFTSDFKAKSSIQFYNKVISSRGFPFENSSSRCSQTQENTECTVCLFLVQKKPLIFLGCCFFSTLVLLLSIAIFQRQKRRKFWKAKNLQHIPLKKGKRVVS
Assay: flow cytometry on CHOK1-hKLB cells
Text: The above heavy chain variable regions were fused to the heavy chain constant region (set forth in SEQ ID NO: 22) and the light chain variable regions were fused to the light chain constant region (set forth in SEQ ID NO: 23) to construct anti-KLB antibodies, and the binding activity of the obtained antibodies for CHOK1-hKLB was detected (see Test Example 2 of the present disclosure for the experimental method).
The binding ability of the antibodies for CHOK1 cell strains CHOK1-hKLB and CHOK1-cynoKLB overexpressing human KLB and monkey KLB (see Example 1 for specific preparation procedure), respectively, was detected by flow cytometry. The specific procedure was as follows: the above cells were cultured in 10% FBS-containing IMDM medium and incubated in an incubator at 37° C. and 5% CO₂ for 2 days. The cells were then added to a cell plate at 1×10⁵ cells per well, centrifuged at 300 g for 5 min, and then washed once with 1% BSA. The antibody diluted in gradient was added to the cell plate at 100 μL per well, and the mixture was incubated at 4° C. for 1 h and washed once with 1% BSA. The diluted (1:400) APC-goat anti-human IgG Fc fluorescent secondary antibody was added at 100 μL per well, and the resulting mixture was incubated at 4° C. for 1 h. The plate was washed three times with 1% BSA, PBS was added at 100 μL per well, and the plate was read.

Binder	EC50 [nM]
hAb99-6 (antibody, human IgG1, kappa, L234A L235A, humanized mAb-99: hAb99VH2 + hAb99VL2; human IgG1 (L234A, L235A) / kappa constant regions) heavy: not shown light: DIQMTQSPSSLSASVGDRVTITCRASKSISKFLAWFQQKPGKTNKLLIYSGSTLQSGVPSRFSGSGSGTDFTLTISSLQPEDFATYYCQQHNEYPWTFGGGTKVEIKRTVAAPSVFIFPPSDEQLKSGTASVVCLLNNFYPREAKVQWKVDNALQSGNSQESVTEQDSKDSTYSLSSTLTLSKADYEKHKVYACEVTHQGLSSPVTKSFNRGEC	0.41
hAb99-1 (antibody, human IgG1, kappa, L234A L235A, V domains shown, humanized mAb-99: hAb99VH1 + hAb99VL1; human IgG1 (L234A, L235A) / kappa constant regions) VH: EVQLVQSGAEVKKPGASVKVSCKASGYTFTNYGINWVRQAPGQRLEWMGYIYIGNGDIEYNAKFKGRVTITSDTSASTAYMELSSLRSEDTAVYYCARGRGLGHFDVWGQGTTVTVSS VL: DIQMTQSPSSLSASVGDRVTITCRASKSISKFLAWYQQKPGKANKLLIYSGSTLQSGVPSRFSGSGSGTDFTLTISSLQPEDFATYYCQQHNEYPWTFGGGTKVEIKR	0.61
hAb99-2 (antibody, human IgG1, kappa, L234A L235A, humanized mAb-99: hAb99VH1 + hAb99VL2; human IgG1 (L234A, L235A) / kappa constant regions) heavy: not shown light: DIQMTQSPSSLSASVGDRVTITCRASKSISKFLAWFQQKPGKTNKLLIYSGSTLQSGVPSRFSGSGSGTDFTLTISSLQPEDFATYYCQQHNEYPWTFGGGTKVEIKRTVAAPSVFIFPPSDEQLKSGTASVVCLLNNFYPREAKVQWKVDNALQSGNSQESVTEQDSKDSTYSLSSTLTLSKADYEKHKVYACEVTHQGLSSPVTKSFNRGEC	0.35
hAb99-7 (antibody, human IgG1, kappa, L234A L235A, humanized mAb-99: hAb99VH2 + hAb99VL3; human IgG1 (L234A, L235A) / kappa constant regions) heavy: not shown light: DVQITQSPSSLSASVGDRVTITCRASKSISKFLAWFQQKPGKTNKLLIYSGSTLQSGVPSRFSGSGSGTDFTLTISSLQPEDFATYYCQQHNEYPWTFGGGTKVEIKRTVAAPSVFIFPPSDEQLKSGTASVVCLLNNFYPREAKVQWKVDNALQSGNSQESVTEQDSKDSTYSLSSTLTLSKADYEKHKVYACEVTHQGLSSPVTKSFNRGEC	0.35
hAb99-14 (antibody, human IgG1, kappa, L234A L235A, V domains shown, humanized mAb-99: hAb99VH1-NL + hAb99VL2; human IgG1 (L234A, L235A) / kappa constant regions) VH: EVQLVQSGAEVKKPGASVKVSCKASGYTFTNYGINWVRQAPGQRLEWMGYIYIGNLDIEYNAKFKGRVTITSDTSASTAYMELSSLRSEDTAVYYCARGRGLGHFDVWGQGTTVTVSS VL: DIQMTQSPSSLSASVGDRVTITCRASKSISKFLAWFQQKPGKTNKLLIYSGSTLQSGVPSRFSGSGSGTDFTLTISSLQPEDFATYYCQQHNEYPWTFGGGTKVEIKR	0.6
hAb99-3 (antibody, human IgG1, kappa, L234A L235A, humanized mAb-99: hAb99VH1 + hAb99VL3; human IgG1 (L234A, L235A) / kappa constant regions) heavy: not shown light: DVQITQSPSSLSASVGDRVTITCRASKSISKFLAWFQQKPGKTNKLLIYSGSTLQSGVPSRFSGSGSGTDFTLTISSLQPEDFATYYCQQHNEYPWTFGGGTKVEIKRTVAAPSVFIFPPSDEQLKSGTASVVCLLNNFYPREAKVQWKVDNALQSGNSQESVTEQDSKDSTYSLSSTLTLSKADYEKHKVYACEVTHQGLSSPVTKSFNRGEC	0.35
hAb99-17 (antibody, human IgG1, kappa, L234A L235A, V domains shown, humanized mAb-99: hAb99VH2-NL + hAb99VL2; human IgG1 (L234A, L235A) / kappa constant regions) VH: EVQLVQSGAEVKKPGASVKVSCKASGYTFTNYGINWVRQAPGQGLEWMGYIYIGNLDIEYNAKFKGRVTITSDTSASTAYMELSSLRSEDTAVYYCARGRGLGHFDVWGQGTTVTVSS VL: DIQMTQSPSSLSASVGDRVTITCRASKSISKFLAWFQQKPGKTNKLLIYSGSTLQSGVPSRFSGSGSGTDFTLTISSLQPEDFATYYCQQHNEYPWTFGGGTKVEIKR	0.43
hAb99-4 (antibody, human IgG1, kappa, L234A L235A, V domains shown, humanized mAb-99: hAb99VH1 + hAb99VL4; human IgG1 (L234A, L235A) / kappa constant regions) VH: EVQLVQSGAEVKKPGASVKVSCKASGYTFTNYGINWVRQAPGQRLEWMGYIYIGNGDIEYNAKFKGRVTITSDTSASTAYMELSSLRSEDTAVYYCARGRGLGHFDVWGQGTTVTVSS VL: DVQITQSPSSLSASVGDRVTITCRASKSISKFLAWFQEKPGKTNKLLIYSGSTLQSGIPSRFSGSGSGTDFTLTISSLQPEDFATYYCQQHNEYPWTFGGGTKVEIKR	0.37
hAb99-16 (antibody, human IgG1, kappa, L234A L235A, V domains shown, humanized mAb-99: hAb99VH2-NV + hAb99VL2; human IgG1 (L234A, L235A) / kappa constant regions) VH: EVQLVQSGAEVKKPGASVKVSCKASGYTFTNYGINWVRQAPGQGLEWMGYIYIGNVDIEYNAKFKGRVTITSDTSASTAYMELSSLRSEDTAVYYCARGRGLGHFDVWGQGTTVTVSS VL: DIQMTQSPSSLSASVGDRVTITCRASKSISKFLAWFQQKPGKTNKLLIYSGSTLQSGVPSRFSGSGSGTDFTLTISSLQPEDFATYYCQQHNEYPWTFGGGTKVEIKR	0.47
hAb99-12 (antibody, human IgG1, kappa, L234A L235A, V domains shown, humanized mAb-99: hAb99VH3 + hAb99VL4; human IgG1 (L234A, L235A) / kappa constant regions) VH: EVQLVQSGAEVKKPGASVKVSCKTSGYTFTNYGINWVRQAPGQGLEWMGYIYIGNGDIEYNAKFKGRVTITSDTSASTAYMELSSLRSEDTAVYFCARGRGLGHFDVWGQGTTVTVSS VL: DVQITQSPSSLSASVGDRVTITCRASKSISKFLAWFQEKPGKTNKLLIYSGSTLQSGIPSRFSGSGSGTDFTLTISSLQPEDFATYYCQQHNEYPWTFGGGTKVEIKR	0.33
hAb99-9 (antibody, human IgG1, kappa, L234A L235A, V domains shown, humanized mAb-99: hAb99VH3 + hAb99VL1; human IgG1 (L234A, L235A) / kappa constant regions) VH: EVQLVQSGAEVKKPGASVKVSCKTSGYTFTNYGINWVRQAPGQGLEWMGYIYIGNGDIEYNAKFKGRVTITSDTSASTAYMELSSLRSEDTAVYFCARGRGLGHFDVWGQGTTVTVSS VL: DIQMTQSPSSLSASVGDRVTITCRASKSISKFLAWYQQKPGKANKLLIYSGSTLQSGVPSRFSGSGSGTDFTLTISSLQPEDFATYYCQQHNEYPWTFGGGTKVEIKR	0.47
hAb99-15 (antibody, human IgG1, kappa, L234A L235A, V domains shown, humanized mAb-99: hAb99VH1-QG + hAb99VL2; human IgG1 (L234A, L235A) / kappa constant regions) VH: EVQLVQSGAEVKKPGASVKVSCKASGYTFTNYGINWVRQAPGQRLEWMGYIYIGQGDIEYNAKFKGRVTITSDTSASTAYMELSSLRSEDTAVYYCARGRGLGHFDVWGQGTTVTVSS VL: DIQMTQSPSSLSASVGDRVTITCRASKSISKFLAWFQQKPGKTNKLLIYSGSTLQSGVPSRFSGSGSGTDFTLTISSLQPEDFATYYCQQHNEYPWTFGGGTKVEIKR	0.41
hAb99-5 (antibody, human IgG1, kappa, L234A L235A, V domains shown, humanized mAb-99: hAb99VH2 + hAb99VL1; human IgG1 (L234A, L235A) / kappa constant regions) VH: EVQLVQSGAEVKKPGASVKVSCKASGYTFTNYGINWVRQAPGQGLEWMGYIYIGNGDIEYNAKFKGRVTITSDTSASTAYMELSSLRSEDTAVYYCARGRGLGHFDVWGQGTTVTVSS VL: DIQMTQSPSSLSASVGDRVTITCRASKSISKFLAWYQQKPGKANKLLIYSGSTLQSGVPSRFSGSGSGTDFTLTISSLQPEDFATYYCQQHNEYPWTFGGGTKVEIKR	0.5
hAb99-10 (antibody, human IgG1, kappa, L234A L235A, humanized mAb-99: hAb99VH3 + hAb99VL2; human IgG1 (L234A, L235A) / kappa constant regions) heavy: not shown light: DIQMTQSPSSLSASVGDRVTITCRASKSISKFLAWFQQKPGKTNKLLIYSGSTLQSGVPSRFSGSGSGTDFTLTISSLQPEDFATYYCQQHNEYPWTFGGGTKVEIKRTVAAPSVFIFPPSDEQLKSGTASVVCLLNNFYPREAKVQWKVDNALQSGNSQESVTEQDSKDSTYSLSSTLTLSKADYEKHKVYACEVTHQGLSSPVTKSFNRGEC	0.36
hAb99-11 (antibody, human IgG1, kappa, L234A L235A, humanized mAb-99: hAb99VH3 + hAb99VL3; human IgG1 (L234A, L235A) / kappa constant regions) heavy: not shown light: DVQITQSPSSLSASVGDRVTITCRASKSISKFLAWFQQKPGKTNKLLIYSGSTLQSGVPSRFSGSGSGTDFTLTISSLQPEDFATYYCQQHNEYPWTFGGGTKVEIKRTVAAPSVFIFPPSDEQLKSGTASVVCLLNNFYPREAKVQWKVDNALQSGNSQESVTEQDSKDSTYSLSSTLTLSKADYEKHKVYACEVTHQGLSSPVTKSFNRGEC	0.33
hAb99-8 (antibody, human IgG1, kappa, L234A L235A, V domains shown, humanized mAb-99: hAb99VH2 + hAb99VL4; human IgG1 (L234A, L235A) / kappa constant regions) VH: EVQLVQSGAEVKKPGASVKVSCKASGYTFTNYGINWVRQAPGQGLEWMGYIYIGNGDIEYNAKFKGRVTITSDTSASTAYMELSSLRSEDTAVYYCARGRGLGHFDVWGQGTTVTVSS VL: DVQITQSPSSLSASVGDRVTITCRASKSISKFLAWFQEKPGKTNKLLIYSGSTLQSGIPSRFSGSGSGTDFTLTISSLQPEDFATYYCQQHNEYPWTFGGGTKVEIKR	0.39
